Test results published in patent US20190300590A1 (PROTAGONIST THERAPEUTICS, published 2019).
*1 amine or outer side, *2 acyl side, *3 side chain or, on linkers, in order; H or OH if unused. Bridges are numbered along the chain shown (N, C = ends). Primed or numbered codes have the meaning given here. [ ]: non-standard residue; d: D form. Phe(4-OMe)(3) = O-methyl-L-tyrosine (4-methoxy-L-phenylalanine), COc1ccc(C[C@H](N[*:1])C(=O)[*:2])cc1; Phe(3,4-(OMe)2) = COc1ccc(C[C@H](N)C(=O)O)cc1OC; 1Nal = N[C@@H](Cc1cccc2ccccc12)C(=O)O; 2Nal = N[C@@H](Cc1ccc2ccccc2c1)C(=O)O; AEF = NCCOc1ccc(C[C@H](N)C(=O)O)cc1; Chg = N[C@H](C(=O)O)C1CCCCC1; hLeu = CC(C)CC[C@H](N)C(=O)O; Abu = CC[C@H](N)C(=O)O; Aib = CC(C)(N)C(=O)O; PEG1 = NCCOCCC(=O)O; Sar = CNCC(=O)O

T1: IL23R_huFC (human, UniProt Q5VWK5 24-353)
T1 sequence (looked up): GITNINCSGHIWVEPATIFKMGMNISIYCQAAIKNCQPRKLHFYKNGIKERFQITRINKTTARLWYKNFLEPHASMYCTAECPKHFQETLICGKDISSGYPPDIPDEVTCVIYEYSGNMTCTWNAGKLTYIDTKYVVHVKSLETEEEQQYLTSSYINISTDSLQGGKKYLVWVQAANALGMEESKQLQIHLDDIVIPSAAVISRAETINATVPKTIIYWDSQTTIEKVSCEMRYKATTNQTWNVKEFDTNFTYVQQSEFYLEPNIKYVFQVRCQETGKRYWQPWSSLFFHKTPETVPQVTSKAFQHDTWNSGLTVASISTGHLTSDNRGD

T2: IL23R_huFC (human, UniProt Q5VWK5 24-353)
T2 sequence (looked up): T1 sequence (looked up)

B1: Ac-[(D)Lys]-CRDWQCY-[1-Nal]-HTH-[ Sarc]-[AEP]-(D)Arg]-NH2 (peptide)
peptide: Ac-[dK]CRDWQCY[1Nal]HTH[Sar][PEG1][dR]-NH2
modifications: disulfide 2-7
SMILES: CC(=O)N[C@H](CCCCN)C(=O)N[C@H]1CSSC[C@@H](C(=O)N[C@@H](Cc2ccc(O)cc2)C(=O)N[C@@H](Cc2cccc3ccccc23)C(=O)N[C@@H](Cc2c[nH]cn2)C(=O)N[C@H](C(=O)N[C@@H](Cc2c[nH]cn2)C(=O)N(C)CC(=O)NCCOCCC(=O)N[C@H](CCCNC(=N)N)C(N)=O)[C@@H](C)O)NC(=O)[C@H](CCC(N)=O)NC(=O)[C@H](Cc2c[nH]c3ccccc23)NC(=O)[C@H](CC(=O)O)NC(=O)[C@H](CCCNC(=N)N)NC1=O
B2: Ac-CADWVCY-[1-Nal]-VTFG-NH2 (peptide)
peptide: Ac-CADWVCY[1Nal]VTFG-NH2
modifications: disulfide 1-6
SMILES: CC(=O)N[C@H]1CSSC[C@@H](C(=O)N[C@@H](Cc2ccc(O)cc2)C(=O)N[C@@H](Cc2cccc3ccccc23)C(=O)N[C@H](C(=O)N[C@H](C(=O)N[C@@H](Cc2ccccc2)C(=O)NCC(N)=O)[C@@H](C)O)C(C)C)NC(=O)[C@H](C(C)C)NC(=O)[C@H](Cc2c[nH]c3ccccc23)NC(=O)[C@H](CC(=O)O)NC(=O)[C@H](C)NC1=O

Columns and labels:
[1] = target: T1, IL23R_huFC; assay: human ELISA vs IL-23
[2] = target: T2, IL23R_huFC; assay: IL23-IL23R competitive ELISA

Row | Binder | IC50 [1] [nM] | IC50 [2] [nM]
1 | Ac-[Abu]QTWQC[AEF]W[Chg]K(Ac)NG-NH2 (thioether 1-6) [Ac-Cyclo-[[Abu]-QTWQC]-[Phe[4-(2-aminoethoxy)]]-W-Chg-[Lys(Ac)]-NG-NH2] | 25 to 100 | 
2 | Ac-[Abu]QTWQC[AEF][Phe(3,4-(OMe)2)][Aib]ENG-NH2 (thioether 1-6) [Ac-Cyclo-[[Abu]-QTWQC]-[Phe[4-(2-aminoethoxy)]]-[Phe(3,4-OMe2)]-[Aib]-ENG-NH2] | 25 to 100 | 
3 | XQTWQCFWXENG (as bracketed in name; thioether cyclo) [Ac-Cyclo-[[Abu]-QTWQC]-[Phe[4-(2-aminoethoxy)]]-W-[Orn]-ENG-NH2] | 25 to 100 | 
4 | Ac-GGVECNDWQCYWHTFG-NH2 (disulfide 5-10 (inferred)) [Ac-GGVECNDWQCYWHTFG-NH2] |  | 500 to 1000
5 | Ac-GGGECENWECYWHTFG-NH2 (disulfide 5-10 (inferred)) [Ac-GGGECENWECYWHTFG-NH2] |  | 500 to 1000
6 | Ac-GDHKCSSWECYWHTFG-NH2 (disulfide 5-10 (inferred)) [Ac-GDHKCSSWECYWHTFG-NH2] |  | 500 to 1000
7 | Ac-CADWVCYWHNHSEGSG-NH2 (disulfide 1-6 (inferred)) [Ac-CADWVCYWHNHSEGSG-NH2] |  | 500 to 1000
8 | B1 |  | 500 to 1000
9 | Ac-DTPRCRTWECYWHTFG-NH2 (disulfide 5-10 (inferred)) [Ac-DTPRCRTWECYWHTFG-NH2] |  | 500 to 1000
10 | Ac-[Abu]QTWQCYW[hLeu]ENG-NH2 (thioether 1-6) [Ac-Cyclo-[[Abu]-QTWQC]-YW-[hLeu]-ENG-NH2] | 25 to 100 | 
11 | Ac-TQFDCRTWECYWHTFG-NH2 (disulfide 5-10 (inferred)) [Ac-TQFDCRTWECYWHTFG-NH2] |  | 500 to 1000
12 | Ac-GSVHCMTWECYWHTFG-NH2 (disulfide 5-10 (inferred)) [Ac-GSVHCMTWECYWHTFG-NH2] |  | 500 to 1000
13 | B2 |  | 500 to 1000
14 | Ac-REGTCSTWKCYWHTFG-NH2 (disulfide 5-10 (inferred)) [Ac-REGTCSTWKCYWHTFG-NH2] |  | 500 to 1000
15 | Ac-CADWVCYWHRSTGGQH-NH2 (disulfide 1-6 (inferred)) [Ac-CADWVCYWHRSTGGQH-NH2] |  | 500 to 1000
16 | Ac-[Abu]QTWQC[Phe(4-OMe)(3)][2Nal][Chg]K(Ac)NG-NH2 (thioether 1-6) [Ac-Cyclo-[[Abu]-QTWQC]-[Phe(4-OMe)]-[Nal]-[Chg]-[Lys(Ac)]-NG-NH2] | 25 to 100 | 
17 | Ac-[Abu]QTWQC[AEF][1Nal][Aib]K(Ac)NG-NH2 (thioether 1-6) [Ac-Cyclo-[[Abu]-QTWQC]-[Phe[4-(2-aminoethoxy)]]-1-Nal[Aib]-[Lys(Ac)]-NG-NH2] | 25 to 100 | 
